The data set concerns the target T1, PBX1 (residues 233-319) (mouse/human, UniProt P40424 P40424:233-319).
T1 sequence: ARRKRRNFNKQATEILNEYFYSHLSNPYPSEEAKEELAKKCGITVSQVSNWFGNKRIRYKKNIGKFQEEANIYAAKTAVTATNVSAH
In words: EMSA; binary PBX1/DNA complex; inhibited by compound 31, not by compound 15. To be noted: label: 32P (Klenow fill-in with alpha-32P-dCTP); annealed with overhangs extended by Klenow.

B1: HOXPBX-CT probe (dsDNA)
DNA 1: CTCTCCTTTTGATTGATTAA
DNA 2: AGAGCTTAATCAATCAAAAGG
For the molecule B1, the binding result is recorded as “binds”.

The values are drawn from patent publication US20050153366, “Protein-protein interaction antagonist screening libraries based upon 1,4-disubstituted naphthalenes and related scaffolds” (published 2005).
